The subject of series [1] is AncSZ. Nature of the series: phosphorylation enrichment, bacterial display (enrichment ratio); higher = better substrate or ligand; peptides without Tyr show the background.
The target of series [2] is FGFR3 (UniProt P22607). Described as above.
Series [3] concerns the target Fes (UniProt P07332). Described as above.
In series [4] the test system is c-Src. The description is as above.
The test system of series [5] is c-Abl (mouse). The description is as above.
The target of series [6] is EPHB2 (UniProt P29323). Described as above.
In series [7] the target is EPHB1 (UniProt P54762). The description is as above.
Sequence of EPHB1 (P54762 whole entry, looked up): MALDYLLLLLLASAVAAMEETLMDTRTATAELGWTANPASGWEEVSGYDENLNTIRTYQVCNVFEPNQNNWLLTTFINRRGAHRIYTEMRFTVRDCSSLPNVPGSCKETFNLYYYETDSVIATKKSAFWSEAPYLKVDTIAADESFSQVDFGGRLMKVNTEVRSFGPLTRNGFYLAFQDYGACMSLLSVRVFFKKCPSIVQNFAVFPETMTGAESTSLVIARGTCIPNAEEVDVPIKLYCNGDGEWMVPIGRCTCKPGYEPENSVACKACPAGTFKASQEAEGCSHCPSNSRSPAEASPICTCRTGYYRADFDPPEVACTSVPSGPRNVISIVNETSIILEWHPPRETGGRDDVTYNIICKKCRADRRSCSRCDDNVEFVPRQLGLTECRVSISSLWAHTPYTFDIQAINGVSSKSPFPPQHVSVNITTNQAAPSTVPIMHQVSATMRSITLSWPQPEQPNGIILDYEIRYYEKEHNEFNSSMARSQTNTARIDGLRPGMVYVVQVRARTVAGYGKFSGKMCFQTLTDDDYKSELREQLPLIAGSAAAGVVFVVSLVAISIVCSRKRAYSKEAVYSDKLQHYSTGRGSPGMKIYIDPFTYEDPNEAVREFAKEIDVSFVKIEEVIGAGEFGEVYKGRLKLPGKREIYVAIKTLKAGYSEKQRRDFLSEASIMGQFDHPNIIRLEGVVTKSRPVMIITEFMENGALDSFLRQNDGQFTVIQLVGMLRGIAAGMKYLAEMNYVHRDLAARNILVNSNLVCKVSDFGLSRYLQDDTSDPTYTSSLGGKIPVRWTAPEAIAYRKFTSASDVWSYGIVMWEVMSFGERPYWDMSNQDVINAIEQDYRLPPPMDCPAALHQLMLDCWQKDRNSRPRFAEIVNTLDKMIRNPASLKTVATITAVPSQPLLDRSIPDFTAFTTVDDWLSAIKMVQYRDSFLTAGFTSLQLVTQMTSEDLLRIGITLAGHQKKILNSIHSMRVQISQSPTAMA
The target in series [8] is MERTK (UniProt Q12866). The series is described as above.
Sequence of MERTK (Q12866 whole entry, looked up): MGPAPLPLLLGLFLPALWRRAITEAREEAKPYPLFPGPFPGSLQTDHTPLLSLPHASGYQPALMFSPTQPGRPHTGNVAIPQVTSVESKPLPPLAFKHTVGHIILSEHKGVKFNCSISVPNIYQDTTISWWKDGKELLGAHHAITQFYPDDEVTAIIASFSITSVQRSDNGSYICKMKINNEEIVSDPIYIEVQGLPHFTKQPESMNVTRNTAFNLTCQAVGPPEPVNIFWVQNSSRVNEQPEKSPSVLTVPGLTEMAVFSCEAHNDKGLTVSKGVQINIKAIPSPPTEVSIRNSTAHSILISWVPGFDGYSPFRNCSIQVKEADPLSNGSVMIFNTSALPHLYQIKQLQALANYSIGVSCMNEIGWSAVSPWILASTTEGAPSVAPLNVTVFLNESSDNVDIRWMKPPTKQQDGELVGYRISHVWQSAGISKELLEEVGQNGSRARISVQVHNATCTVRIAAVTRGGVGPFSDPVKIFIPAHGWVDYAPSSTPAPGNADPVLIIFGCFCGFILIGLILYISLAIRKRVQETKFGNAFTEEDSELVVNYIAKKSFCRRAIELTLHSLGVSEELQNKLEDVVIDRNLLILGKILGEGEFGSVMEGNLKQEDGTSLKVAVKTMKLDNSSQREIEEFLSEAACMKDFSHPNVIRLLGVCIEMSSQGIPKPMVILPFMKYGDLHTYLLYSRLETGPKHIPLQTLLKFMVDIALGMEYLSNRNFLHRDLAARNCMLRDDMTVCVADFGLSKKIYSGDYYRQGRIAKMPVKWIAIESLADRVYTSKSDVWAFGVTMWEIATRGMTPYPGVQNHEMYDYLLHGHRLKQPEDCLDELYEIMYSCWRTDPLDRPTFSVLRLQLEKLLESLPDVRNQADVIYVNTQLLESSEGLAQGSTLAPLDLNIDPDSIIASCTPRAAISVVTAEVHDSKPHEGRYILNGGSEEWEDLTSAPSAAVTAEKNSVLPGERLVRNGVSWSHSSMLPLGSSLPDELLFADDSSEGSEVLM
The target of series [9] is Fyn (UniProt P06241). Described as above.
For series [10], the target named is Hck (UniProt P08631). Described as above.
Sequence of Hck (P08631 whole entry, looked up): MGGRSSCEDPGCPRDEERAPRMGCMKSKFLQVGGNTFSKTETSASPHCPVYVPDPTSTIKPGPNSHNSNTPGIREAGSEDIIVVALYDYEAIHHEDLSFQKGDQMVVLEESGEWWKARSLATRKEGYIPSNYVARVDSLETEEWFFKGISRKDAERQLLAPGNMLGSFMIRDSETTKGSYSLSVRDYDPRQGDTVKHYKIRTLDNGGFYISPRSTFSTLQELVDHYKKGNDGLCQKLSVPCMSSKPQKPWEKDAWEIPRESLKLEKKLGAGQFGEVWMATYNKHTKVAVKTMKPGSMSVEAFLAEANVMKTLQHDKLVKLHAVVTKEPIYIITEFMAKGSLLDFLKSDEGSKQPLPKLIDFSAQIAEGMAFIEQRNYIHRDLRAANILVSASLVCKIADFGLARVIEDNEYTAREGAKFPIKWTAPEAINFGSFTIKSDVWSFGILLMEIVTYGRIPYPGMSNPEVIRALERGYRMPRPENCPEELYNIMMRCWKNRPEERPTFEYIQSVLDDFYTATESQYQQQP
Series [11] has as its system Fer (mouse). The description is as above.
Series [12] addresses FGFR1 (UniProt P11362). The description is as above.
Series [13] has as its target Jak2 (UniProt O60674). Described as above.
Series [14] concerns the target Grb2 SH2 (UniProt P62993). Nature of the series: SH2 binding enrichment of the phosphorylated peptide, bacterial display (enrichment ratio); higher = better substrate or ligand; peptides without Tyr show the background.
Series [15] addresses SHP2-C SH2. The series is described as above.
The target in series [16] is c-Src SH2. The series is described as above.
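Throughout, for SH2 binding enrichment of the phosphorylated peptide, bacterial display: peptide library displayed on the E. coli surface as eCPX fusions, selected cells deep-sequenced, score is each peptide's frequency after selection divided by its frequency in the input.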
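Throughout, for phosphorylation enrichment, bacterial display: 11-residue human phosphosite peptides and single-mutation variants displayed on the E. coli surface, counted by deep sequencing, each peptide's frequency after selection divided by its frequency in the unselected input library; frequency after pTyr selection over input frequency; kinase dosed for 20-30% of maximal phosphorylation in three min.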

Sequence of Jak2 (O60674 whole entry, looked up): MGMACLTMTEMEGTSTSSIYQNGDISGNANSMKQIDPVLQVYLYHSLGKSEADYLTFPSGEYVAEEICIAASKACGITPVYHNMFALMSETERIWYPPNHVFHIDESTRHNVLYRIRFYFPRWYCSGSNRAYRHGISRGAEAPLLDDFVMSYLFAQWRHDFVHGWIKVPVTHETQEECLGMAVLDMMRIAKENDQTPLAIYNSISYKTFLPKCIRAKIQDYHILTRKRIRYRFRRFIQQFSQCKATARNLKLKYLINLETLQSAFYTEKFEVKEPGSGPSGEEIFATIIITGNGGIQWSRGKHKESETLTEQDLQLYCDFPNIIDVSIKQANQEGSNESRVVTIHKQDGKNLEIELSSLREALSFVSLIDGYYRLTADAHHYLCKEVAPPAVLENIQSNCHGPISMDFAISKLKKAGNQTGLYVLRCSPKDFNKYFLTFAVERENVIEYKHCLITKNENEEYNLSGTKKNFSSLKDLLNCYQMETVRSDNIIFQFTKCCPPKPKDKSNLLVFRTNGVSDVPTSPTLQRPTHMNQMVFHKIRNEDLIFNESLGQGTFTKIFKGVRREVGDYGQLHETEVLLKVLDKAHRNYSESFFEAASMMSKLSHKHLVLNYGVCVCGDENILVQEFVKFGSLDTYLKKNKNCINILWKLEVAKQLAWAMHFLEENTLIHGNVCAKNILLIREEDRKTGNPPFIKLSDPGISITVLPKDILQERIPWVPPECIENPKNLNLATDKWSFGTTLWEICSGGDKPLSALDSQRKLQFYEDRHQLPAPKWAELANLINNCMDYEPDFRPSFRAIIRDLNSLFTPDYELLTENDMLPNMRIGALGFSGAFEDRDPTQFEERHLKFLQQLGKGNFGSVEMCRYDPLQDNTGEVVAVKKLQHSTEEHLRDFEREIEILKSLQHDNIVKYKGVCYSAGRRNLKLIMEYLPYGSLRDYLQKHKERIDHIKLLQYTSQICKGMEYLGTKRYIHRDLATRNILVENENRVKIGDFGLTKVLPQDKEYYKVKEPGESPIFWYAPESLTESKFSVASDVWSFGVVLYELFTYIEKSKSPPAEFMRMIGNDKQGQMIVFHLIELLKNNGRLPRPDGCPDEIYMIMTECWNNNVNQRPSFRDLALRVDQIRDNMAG
Sequence of Fes (P07332 whole entry, looked up): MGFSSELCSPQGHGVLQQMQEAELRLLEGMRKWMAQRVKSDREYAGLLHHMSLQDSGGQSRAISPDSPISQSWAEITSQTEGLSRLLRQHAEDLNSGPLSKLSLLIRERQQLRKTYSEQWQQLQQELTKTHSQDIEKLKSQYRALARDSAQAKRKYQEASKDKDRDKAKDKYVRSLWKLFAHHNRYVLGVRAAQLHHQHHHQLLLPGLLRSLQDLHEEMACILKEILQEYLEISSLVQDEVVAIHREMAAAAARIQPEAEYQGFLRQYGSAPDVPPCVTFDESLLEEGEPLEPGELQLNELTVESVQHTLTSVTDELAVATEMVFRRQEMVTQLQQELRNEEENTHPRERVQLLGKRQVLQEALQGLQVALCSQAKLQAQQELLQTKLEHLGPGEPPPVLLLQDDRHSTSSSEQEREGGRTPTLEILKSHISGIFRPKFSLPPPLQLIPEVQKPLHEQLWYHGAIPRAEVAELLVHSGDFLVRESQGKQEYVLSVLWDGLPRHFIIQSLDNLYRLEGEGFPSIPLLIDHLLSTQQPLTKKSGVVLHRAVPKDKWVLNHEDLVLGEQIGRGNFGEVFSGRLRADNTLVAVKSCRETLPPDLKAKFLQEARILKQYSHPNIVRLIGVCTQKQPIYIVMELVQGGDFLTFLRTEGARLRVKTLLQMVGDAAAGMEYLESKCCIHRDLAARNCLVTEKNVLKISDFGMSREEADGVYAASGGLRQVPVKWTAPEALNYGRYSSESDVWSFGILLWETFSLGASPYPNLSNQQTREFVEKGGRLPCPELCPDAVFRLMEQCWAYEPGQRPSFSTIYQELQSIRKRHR
Sequence of Grb2 SH2 (P62993 whole entry, looked up): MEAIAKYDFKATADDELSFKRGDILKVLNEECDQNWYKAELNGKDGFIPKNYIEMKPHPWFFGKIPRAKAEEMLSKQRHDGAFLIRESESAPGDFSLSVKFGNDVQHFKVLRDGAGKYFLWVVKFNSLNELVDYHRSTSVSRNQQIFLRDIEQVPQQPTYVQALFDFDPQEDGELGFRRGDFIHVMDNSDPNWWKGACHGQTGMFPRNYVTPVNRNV

Turning to SDVSSYLEGQV [GCG_Y110_A115V], the phosphorylation enrichment in series [1] was 0.924; in series [2], 0.735; in series [3], 1.24; in series [4], 0.52; in [5] it was 0.838; in series [6] it was 0.534. For the same sequence, the phosphorylation enrichment in [7] was 0.616; in [8], 0.478; in series [9] it was 0.557; in series [10], 0.511; in series [11], 0.547; in [12] it was 0.532. Further, in series [13], the phosphorylation enrichment was found to be 1.09. In addition, the SH2 binding enrichment in series [14] is 0.81; in [15], 0.569; in series [16] it was 0.479.
For SEASGYQDNIA [DES_Y363], the phosphorylation enrichment turned out to be 0.778 in [1]; 0.674 in series [2]; 0.94 in [3]; 0.427 in series [4]; 0.616 in [5]; 0.485 in series [6]. Also, the phosphorylation enrichment in series [7] amounted to 0.52; in [8], 0.515; in [9], 0.384; in series [10], 0.485; in series [11], 0.551; in series [12], 0.441. Moreover, the phosphorylation enrichment in series [13] was 0.783. Further, the results for the SH2 binding enrichment in [14], in series [15] and in [16] were 0.907, 0.567 and 0.52, respectively.
SEHLIYLEFKS [RASGRP1_Y215_T214I]: the phosphorylation enrichment in series [1] stood at 1.44; in [2], 1.77; in series [3] it was 1.46; in series [4], 5.64; in [5], 6.39; in series [6] it was 1.04. Further, the phosphorylation enrichment is 1.58 in series [7]; 0.875 in series [8]; 6.74 in series [9]; 5.08 in series [10]; 0.69 in series [11]; 1.61 in [12]. Moreover, the phosphorylation enrichment in series [13] was determined as 1.2. Further, the SH2 binding enrichment in series [14] is 0.801; in series [15] it was 0.729; in series [16], 0.499.
As to SEKVVYQRFTE [NCF1_Y41_R42Q], the phosphorylation enrichment in series [1] stood at 0.675; in series [2], 0.542; in [3], 0.763; in [4], 1.93; in series [5] it was 1.07; in series [6] it was 0.394. For the same sequence, the phosphorylation enrichment in series [7] came out at 0.457; in [8] it was 0.379; in series [9] it was 0.889; in series [10] it was 0.959; in [11], 0.508; in series [12], 0.574. Moreover, the phosphorylation enrichment in [13] amounted to 0.931. The SH2 binding enrichment in series [14] worked out at 0.676; in series [15], 1.72; in series [16], 0.618.
SENPKCPEVGD [TMEM43_Y233_Y233C]: the phosphorylation enrichment in series [1] worked out at 0.971; in series [2], 0.595; in series [3], 1.08; in series [4], 0.471; in series [5], 1.24; in series [6] it was 0.49. Further, the phosphorylation enrichment in series [7] came to 0.492; in series [8], 0.461; in [9] it was 0.441; in series [10], 0.487; in [11], 0.467; in series [12] it was 0.487. Besides, the phosphorylation enrichment in [13] came out at 0.807. Moreover, the SH2 binding enrichment in [14] is 0.959; in series [15], 0.922; in [16], 0.682.
SFCFRYRCAAW [SUMF1_Y344_R349W_YF]: the phosphorylation enrichment was 0.933 in series [1]; 0.613 in [2]; 0.829 in series [3]; 0.363 in [4]; 0.45 in series [5]; 0.465 in series [6]. For the same sequence, the phosphorylation enrichment was 0.473 in series [7]; 0.449 in series [8]; 0.41 in [9]; 0.442 in series [10]; 0.454 in [11]; 0.501 in series [12]. In series [13], the phosphorylation enrichment stood at 0.638. Moreover, the SH2 binding enrichment in [14] was found to be 2.09; in series [15], 1.58; in [16], 1.78.
SFIGQYSGKKE [L1CAM_Y1229]: the phosphorylation enrichment in series [1] stood at 0.735; in [2], 0.519; in series [3], 0.714; in series [4], 0.374; in series [5], 0.609; in series [6], 0.413. The phosphorylation enrichment was 0.452 in series [7]; 0.382 in series [8]; 0.461 in series [9]; 0.486 in series [10]; 0.372 in [11]; 0.417 in series [12]. Besides, in series [13], the phosphorylation enrichment worked out at 0.532. For the same sequence, the SH2 binding enrichment is 0.721 in [14], 0.622 in [15] and 0.525 in series [16].
Take SFVVRYNQPRV [GRIN2D_Y736_M733V_YF]: the phosphorylation enrichment in series [1] worked out at 1.01; in [2] it was 0.608; in series [3] it was 1.1; in series [4], 0.377; in series [5], 0.663; in [6] it was 0.517. Also, the phosphorylation enrichment in [7] worked out at 0.559; in [8] it was 0.366; in series [9], 0.483; in series [10], 0.515; in series [11], 0.49; in [12], 0.499. Further, the phosphorylation enrichment in series [13] was 0.794. Besides, the SH2 binding enrichment in series [14] was 1.06; in series [15], 0.697; in [16] it was 0.972.

Values taken from the supplement of paper PMC10065799, “High-throughput profiling of sequence recognition by tyrosine kinases and SH2 domains using bacterial peptide display” (eLife, 2023).
